Data on 1 substance can be found in patent publication US20100099079.

This data set concerns 5-FAM/QXL 520 NS3 FRET substrate.

Turning to Recombinant HCV NS3/4A protease, the “NS3 FRET activity (5-FAM dequenching)” value was “FRET signal increased with increasing amounts of purified NS3, revealing a linear correlation (R^2=0.999) between NS3 protein levels and FRET activity”.
